Laboratory results: PMC7376121, “In-Lipid Structure of Pressure-Sensitive Domains Hints Mechanosensitive Channel Functional Diversity” (Biophysical Journal, 2020)
Where a chain is given by its changes, count along the chain named. In names and notes the source's numbering stands.

B1: Escherichia coli MscL F93C, MTSSL spin-labelled (EcMscL F93R1) (natural protein, UniProt P0A742 1-136, looked up)
chain: MSIIKEFREFAMRGNVVDLAVGVIIGAAFGKIVSSLVADIIMPPLGLLIGGIDFKQFAVTLRDAQGDIPAVVMHYGVFIQNVFDFLIVAFAICMAIKLINKLNRKKEEPAAAPAPTKEEVLLTEIRDLLKEQNNRS
modifications: MTSSL spin label on the cysteine at 93 (R1)
notes: Mechanosensitive channel of large conductance (MscL), Escherichia coli; cysteine mutant on vector pET-52b; R1 denotes the spin-labelled cysteine; also called EcF93R1; source: E. coli BL21 (DE3), purified (Ni-NTA, SEC) in DDM, MTSSL spin-labelled; also reconstituted in MSP1D1 DMPC nanodisks
B2: Escherichia coli MscL M94C, MTSSL spin-labelled (EcMscL M94R1) (natural protein, UniProt P0A742 1-136, looked up)
chain: B1 chain with C93F, M94C
modifications: MTSSL spin label on the cysteine at 94 (R1)
notes: Mechanosensitive channel of large conductance (MscL), Escherichia coli; cysteine mutant on vector pET-52b; R1 denotes the spin-labelled cysteine; possibly a pentamer in DDM; also called EcM94R1; EcM94C; source: E. coli BL21 (DE3), purified (Ni-NTA, SEC) in DDM, MTSSL spin-labelled; also reconstituted in MSP1D1 DMPC nanodisks

Molecular target: the molecule itself
Experiment: PELDOR/DEER; spin-labelled single-cysteine channel in DDM detergent solution (50 mM sodium phosphate pH 7.5, 300 mM NaCl, 0.05% DDM), diluted 1:1 with deuterated ethylene glycol, flash frozen; Q band, 50 K; distances between the labels of the subunits of one channel

Row | Protein | stoichiometry N | binding result
1 | B1 | 5 | 
2 | B2 |  | binds
